Consider two substances from paper PMC10850787.

Assay [1] deals with PaFtsH2-6xHis (FtsH2 of Pseudomonas aeruginosa SG17M clone C, tLST genomic island) (Pseudomonas aeruginosa SG17M). Kind of assay: negative-stain electron microscopy; detergent-solubilised enzyme at 0.4 mg/ml in storage buffer with 0.1% Igepal, 2% uranyl acetate; 3D reconstruction with C6 symmetry, about 22 A.
The target is the same in assay [2]. Briefly: SEC; analytical Superdex 200 (increase) 3.2/3.0 gel filtration column in Buffer PD (50 mM Tris-HCl pH 8.0, 80 mM NaCl, 10% glycerol, 2 mM beta-mercaptoethanol, 0.1% NP-40); native mass from molecular weight standards; hexamer plus NP-40 micelles. (In general: In gel filtration, larger molecules generally elute earlier.)
Assay [3] deals with PaFtsH1-6xHis (FtsH1 of Pseudomonas aeruginosa SG17M clone C) (Pseudomonas aeruginosa SG17M). Briefly: negative-stain electron microscopy; detergent-solubilised enzyme at 0.4 mg/ml in storage buffer with 0.1% Igepal, 2% uranyl acetate; 3D reconstruction with C6 symmetry, about 22 A.
The target is the same in assay [4]. Briefly: SEC; analytical Superdex 200 (increase) 3.2/3.0 gel filtration column in Buffer PD (50 mM Tris-HCl pH 8.0, 80 mM NaCl, 10% glycerol, 2 mM beta-mercaptoethanol, 0.1% NP-40); native mass from molecular weight standards; hexamer plus NP-40 micelles.

One may read the stoichiometry N as the number of molecules, sites or subunits per partner or assembly. “PaFtsH2-6xHis (FtsH2 of Pseudomonas aeruginosa SG17M clone C, tLST genomic island) (enzyme)”: the stoichiometry N in assay [1] and in assay [2] was 6 each time.
As to “PaFtsH1-6xHis (FtsH1 of Pseudomonas aeruginosa SG17M clone C) (enzyme)”, the stoichiometry N in assay [3] and in assay [4] was 6 in each case.
